Reference: patent US20200283528A1

Key:
[1] = biological target: Fc tagged human PDL1 (human) (UniProt Q9NZQ7); test: SPR Biacore T200; PDL1-Fc captured; molecule 0.12-90 nM
[2] = biological target: human PDL1 (recombinant, soluble) (human) (UniProt Q9NZQ7); test: PDL1/PD-1 competition ELISA; PD-1 coated, biotinylated PDL1 1 ng/ml
[3] = biological target: human CD137-Fc chimeric protein (human) (UniProt Q07011); test: SPR Biacore T200; CD137-Fc captured; molecule as analyte
[4] = biological target: human PDL1 (recombinant, soluble) (human) (UniProt Q9NZQ7); test: PDL1/B7-1 competition ELISA; B7-1 coated, biotinylated PDL1 40 ng/ml
[5] = biological target: human PDL1 expressed on cells (human) (UniProt Q9NZQ7); test: cell-based or functional assay

B1: PRO1432 (scDb-scFv: 33-03-G02 sc18 / 38-02-A04 sc013 / 19-01-H04 sc03) (protein, from a related filing)
chain: DIQMTQSPSSLSASVGDRVTITCQASQSINNVLAWYQQKPGKAPKLLIYRASTLASGVPSRFSGSGSGTDFTLTISSLQPEDFATYYCQSSYGNYGDFGCGTKVTVLGGGGGSQVQLQESGPGLVKPSETLSLTCKASGFSFSSGYDMCWVRQPPGKGLEWIACVVAGSVDITYYASWAKGRVTISKDSSKNQVSLKLSSVTAADTAVYYCARKDAYSDAFNLWGQGTLVTVSSGGGGSGGGGSGGGGSGGGGSIQMTQSPSSLSASVGDRVTITCQASQSINDYLAWYQQKPGKAPKLLIYKASTLASGVPSRFSGSGSGTDFTLTISSLQPEDFATYYCQQGYIITDIDNVFGTGTKVTVLGGGGGSEVQLVESGGGLVQPGGSLRLSCAASGFSFSNSYWICWVRQAPGKCLEWIGCTFVGSSDSTYYANWAKGRFTISRDNSKNTVYLQMNSLRAEDTAVYYCARHPSDAVYGYANNLWGQGTLVTVSSGGGGSGGGGSIQMTQSPSSLSASVGDRVTITCQSSESVYSNNQLSWYQQKPGQPPKLLIYDASDLASGVPSRFSGSGSGTDFTLTISSLQPEDFATYYCAGGFSSSSDTAFGGGTKLTVLGGGGGSGGGGSGGGGSGGGGSEVQLVESGGGLVQPGGSLRLSCAASGFSLSSNAMGWVRQAPGKGLEYIGIISVGGFTYYASWAKGRFTISRDNSKNTVYLQMNSLRAEDTATYFCARDRHGGDSSGAFYLWGQGTLVTVSS
Kd [1]: 0.011 nM | koff [1]: 4.4e-05 s⁻¹ | kon [1]: 4.2e+06 M⁻¹ s⁻¹ | IC50 [2]: 3.26 ng/mL | rel. IC50 (IC50, Avelumab/IC50, test molecule) [2]: 0.43 | Kd [3]: 0.75 nM | koff [3]: 0.00045 s⁻¹ | kon [3]: 600000 M⁻¹ s⁻¹ | IC50 [4]: 2.83 ng/mL | rel. IC50 (IC50, Avelumab/IC50, test molecule) [4]: 0.99 | NF-AT potency assay IC50 (with HSA) [5]: 18.5 ng/mL | NF-AT potency assay rel. IC50 (IC50, Avelumab/IC50, test molecule) (with HSA) [5]: 1.98
